From article PMC10665668

Tests used:
[1] = molecular target: class II sulfofructose-1-phosphate (SFP) aldolase from Yersinia aldovae (Yersinia aldovae); assay: SEC-MALS
[2] = molecular target: class II sulfofructose-1-phosphate (SFP) aldolase from Hafnia paralvei (Hafnia paralvei); assay: SEC-MALS

| Substance | stoichiometry N [1] | stoichiometry N [2] |
| --- | --- | --- |
| class II sulfofructose-1-phosphate (SFP) aldolase from Yersinia aldovae (enzyme) | 4 | – |
| class II sulfofructose-1-phosphate (SFP) aldolase from Hafnia paralvei (enzyme) | – | 4 |
